Laboratory results reported in US20200062863A1 (CSL BEHRING, published 2020).

Experiments:
human Factor XIIa-beta [1] = target: T1, human Factor XIIa-beta (human, UniProt P00748 354-615, limits assumed); assay: SPR (Biacore), KD against parental 3F7
T1 construct: Bought from Enzyme Research Laboratories; also called FXIIa beta; FXIIa-beta
T1 sequence: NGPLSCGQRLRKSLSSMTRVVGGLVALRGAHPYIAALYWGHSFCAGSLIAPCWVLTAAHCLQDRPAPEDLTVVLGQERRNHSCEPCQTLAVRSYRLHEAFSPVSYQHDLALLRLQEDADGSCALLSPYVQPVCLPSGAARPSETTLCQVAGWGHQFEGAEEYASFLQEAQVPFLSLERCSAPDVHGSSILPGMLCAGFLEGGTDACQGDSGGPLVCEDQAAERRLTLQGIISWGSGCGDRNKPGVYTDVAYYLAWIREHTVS

human Factor XIIa-beta [2] = target: T1, human Factor XIIa-beta; assay: SPR (Biacore), purified IgG captured on anti-human IgG, FXIIa beta 0-40 nM, 1:1 fit, 25 C
human Factor XIIa-beta [3] = target: T1, human Factor XIIa-beta; assay: SPR (Biacore A100), unpurified IgG4 supernatant captured on anti-human IgG, single FXIIa beta concentration (100 nM), 37 C, 1:1 fit; estimated
Protocol: Anti-human (Goat anti-human IgG (gamma) mouse adsorbed, Invitrogen, Cat No. H10500) was chemically immobilised on a CM-5 sensor surface using amine coupling chemistry. Culture supernatants were diluted 1/60 with running buffer before capture. Antibodies were captured for 180 seconds representing an average capture of 800 response units (RU). FXIIa beta was then injected at zero and 100 nM for 180 seconds, and dissociated for 180 seconds. All assays were conducted on a Biacore A100 instrument at 37 degrees Celsius and the data fitted to a 1:1 kinetic model.

human Factor XIIa-beta [4] = target: T1, human Factor XIIa-beta; assay: SPR (Biacore), purified IgG4 captured on anti-human IgG, FXIIa beta 0-40 nM, 1:1 fit, 25 C

- Fold affinity improvement (human Factor XIIa-beta [1]): 1 fold
- Kd (human Factor XIIa-beta [2]): 6.2 nM
- Kd (human Factor XIIa-beta [3]): 33 nM
- Kd (human Factor XIIa-beta [4]): 8.6 nM
- koff (human Factor XIIa-beta [4]): 0.0011 s⁻¹
- kon (human Factor XIIa-beta [4]): 120000 M⁻¹ s⁻¹
B1: monoclonal antibody 3F7 (fully human IgG4/lambda) (antibody, V domains shown)
VH: EVQLLESGGGLVQPGGSLRLSCAASGFTFSKYIMQWVRQAPGKGLEWVSGIRPSGGTTVYADSVKGRFTISRDNSKNTLYLQMNSLRAEDTAVYYCARALPRSGYLISPHYYYYALDVWGQGTTVTVSS
VL: QSELTQPPSASGTPGQRVTISCSGSSSNIGRNYVYWYQQVPGTAPKLLIYSNNQRPSGVPDRFSGSKSGTSASLVISGLRSEDEADYYCAAWDASLRGVFGGGTKLTVLG
notes: also called 3F7 mAb; MAb 3F7
